The text below walks through data of patent US11028167 (CENTIVAX, dated 2021).

Common to all, as to experiment: SPR, scFv captured by anti-V5, RBD analyte
Experiment [1] addresses SARS-CoV-2 Receptor Binding Domain (RBD) protein (SARS-CoV-2, UniProt P0DTC2 319-541).
The target in experiment [2] is MERS Receptor Binding Domain (RBD) protein (Middle East Respiratory Syndrome (MERS) …, UniProt K9N5Q8 367-606).
Experiment [3] has as its target SARS-CoV-1 Receptor Binding Domain (RBD) protein (SARS-CoV-1, UniProt P59594 306-527).

B1: COVID19_P06_F05 (scFv, V domains shown)
VH: QVQLVQSGAEVKKPGASVKVSCKASGYTFASYDVNWVRQAPGQGLEWMGIINPRSGDANYAQKFQGRVTMTRDTSTSTVYMELSSLRSEDTAVYYCTRERHPQLLMPLDYWGQGTLVTVSS
VL: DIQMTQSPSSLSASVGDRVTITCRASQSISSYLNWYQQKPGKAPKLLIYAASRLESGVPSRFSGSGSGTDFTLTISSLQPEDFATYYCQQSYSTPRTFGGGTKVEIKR
By Kd is commonly meant the free concentration of one partner at which half of the binding sites on the other are occupied at equilibrium, for simple one-to-one binding. Higher therefore signals lower affinity. Usually koff stands for the rate constant with which the complex falls apart. For orientation: kon means a measure of how fast the partners come together. In experiment [1], B1 showed a Kd of 0.9 nM, a koff of 5.7e-05 s⁻¹ and a kon of 61900 M⁻¹ s⁻¹. The binding result in experiment [2] was “no binding (tested: 300 nM)”. For the same molecule, the binding result in experiment [3] was “no binding (tested: 300 nM)”.

B2: COVID19_P06_G10 (scFv, V domains shown)
VH: QVQLVQSGAEVKKPGASVKVSCKASGYDFINYYIHWVRQAPGQGLEWMGIIDPSGGSTSYAQKFQGRVTMTRDTSTSTVYMELSSLRSEDTAVYYCTREGIPQLLRTLDYWGQGTLVTVSS
VL: DIQMTQSPSSLSASVGDRVTITCRASQDISDSLAWYQQKPGKAPKLLIYAASSLQSGVPSRFSGSGSGTDFTLTISSLQPEDFATYYCQQSYSRLAWTFGGGTKVEIKR
For B2, in experiment [1], binding was put at a Kd of 2.06 nM, the koff is 0.00068 s⁻¹ and the kon came to 330000 M⁻¹ s⁻¹. In addition, the binding result in experiment [2] is listed as “no binding (tested: 300 nM)”. Besides, in experiment [3], the binding result is “no binding (tested: 300 nM)”.

B3: COVID19_R02_D11 (scFv, V domains shown)
VH: QVQLVQSGAEVKKPGASVKVSCKASGYTFTENEMHWVRQAPGQGLEWMGIINPSAGSTSYAQKFQGRVTMTRDTSTSTVYMELSSLRSEDTAVYYCTREGIPQLLRTLDYWGQGTLVTVSS
VL: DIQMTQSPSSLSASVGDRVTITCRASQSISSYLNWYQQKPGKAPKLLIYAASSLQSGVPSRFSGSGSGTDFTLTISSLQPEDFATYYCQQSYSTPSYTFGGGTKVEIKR
B3: in experiment [1], binding was put at a Kd of 4.9 nM, the koff turned out to be 0.00069 s⁻¹ and the kon is 140000 M⁻¹ s⁻¹. In addition, the binding result in experiment [2] is given as “no binding (tested: 300 nM)”. Besides, the binding result in experiment [3] was “no binding (tested: 300 nM)”.

B4: COVID19_R02_F04 (scFv, V domains shown)
VH: QVQLVQSGAEVKKPGASVKVSCKASGYRFTSYEVNWVRQAPGQGLEWMGIINPSGGSTSYAQKFQGRVTMTRDTSTSTVYMELSSLRSEDTAVYYCTREGIPQLLWALDYWGQGTLVTVSS
VL: not shown
For B4, in experiment [1], the affinity, expressed as Kd, was 6.4 nM; the koff stood at 0.00036 s⁻¹; the kon was found to be 56000 M⁻¹ s⁻¹.

B5: COVID19_R02_E11 (scFv, V domains shown)
VH: QVQLVQSGAEVKKPGASVKVSCKASGYTFTENEMHWVRQAPGQGLEWMGIINPSGGSTSYAQKFQGRVTMTRDTSTSTVYMELSSLRSEDTAVYYCTREGIPQLLRTLDYWGQGTLVTVSS
VL: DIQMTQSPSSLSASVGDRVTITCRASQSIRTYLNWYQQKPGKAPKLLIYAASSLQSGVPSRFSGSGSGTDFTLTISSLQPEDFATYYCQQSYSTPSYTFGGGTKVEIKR
notes: also called COVID19_C R02_E11
In experiment [1], B5 displayed a Kd of 7.9 nM, a koff of 0.00079 s⁻¹ and a kon of 100000 M⁻¹ s⁻¹. For the same molecule, the binding result in experiment [2] is reported as “no binding (tested: 300 nM)”. The binding result in experiment [3] was “no binding (tested: 300 nM)”.

B6: COVID19_R02_A04 (scFv, V domains shown)
VH: QVQLVQSGAEVKKPGASVKVSCKASGYTFTENEMHWVRQAPGQGLEWMGIINPDGGSTSYAQKFQGRVTMTRDTSTSTVYMELSSLRSEDTAVYYCTREGIPQLLRTLDYWGQGTLVTVSS
VL: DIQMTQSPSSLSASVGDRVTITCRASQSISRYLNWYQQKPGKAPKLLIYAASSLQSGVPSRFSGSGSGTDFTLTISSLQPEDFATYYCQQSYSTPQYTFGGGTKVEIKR
As to B6, in experiment [1], the affinity, expressed as Kd, was 12.7 nM; the koff worked out at 0.00069 s⁻¹; the kon came to 54400 M⁻¹ s⁻¹. For the same molecule, the binding result in experiment [2] was “no binding (tested: 300 nM)”. In experiment [3], the binding result is listed as “no binding (tested: 300 nM)”.

B7: COVID19_R02_D07 (scFv, V domains shown)
VH: QVQLVQSGAEVKKPGASVKVSCKASGYTFTENEMHWVRQAPGQGLEWMGIINPSGGSTSYAQKFQGRVTMTRDTSTSTVYMELSSLRSEDTAVYYCTREGPPQLLRTLDYWGQGTLVTVSS
VL: DIQMTQSPSSLSASVGDRVTITCRASQSISSYLNWYQQKPGKAPKLLIYHTSNLETGVPSRFSGSGSGTDFTLTISSLQPEDFATYYCQQSYSFPATTFGGGTKVEIKR
Take B7: in experiment [1], the affinity, expressed as Kd, was 6.3 nM; the koff came to 0.00043 s⁻¹; the kon came out at 68000 M⁻¹ s⁻¹. Also, the binding result in experiment [2] is recorded as “no binding (tested: 300 nM)”. The binding result in experiment [3] is listed as “no binding (tested: 300 nM)”.

B8: COVID19_P06_C02 (scFv, V domains shown)
VH: QVQLVQSGAEVKKPGASVKVSCKASGYTFTENEMHWVRQAPGQGLEWMGIINPSGGSTSYAQKFQGRVTMTRDTSTSTVYMELSSLRSEDTAVYYCTREGIPWWLRTLDYWGQGTLVTVSS
VL: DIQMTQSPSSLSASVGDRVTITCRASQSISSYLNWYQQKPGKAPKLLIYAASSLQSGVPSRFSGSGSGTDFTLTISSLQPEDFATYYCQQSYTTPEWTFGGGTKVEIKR
notes: also called COVID19_P06_CO2
In experiment [1], B8 gave a Kd of 6.15 nM, a koff of 0.000438 s⁻¹ and a kon of 71200 M⁻¹ s⁻¹. Also, the binding result in experiment [2] was “no binding (tested: 300 nM)”. Further, the binding result in experiment [3] is listed as “no binding (tested: 300 nM)”.

B9: COVID19_R02_C11 (scFv, V domains shown)
VH: QVQLVQSGAEVKKPGASVKVSCKASGYTFSDYYMHWVRQAPGQGLEWMGIIDPSGGSASYAQKFQGRVTMTRDTSTSTVYMELSSLRSEDTAVYYCTREGIPQLLRTLDYWGQGTLVTVSS
VL: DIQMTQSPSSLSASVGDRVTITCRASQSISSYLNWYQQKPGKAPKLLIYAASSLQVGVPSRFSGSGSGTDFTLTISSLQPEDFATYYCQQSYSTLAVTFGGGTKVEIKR
In the case of B9, in experiment [1], the Kd was 12.8 nM, the koff stood at 0.0011 s⁻¹ and the kon came to 86000 M⁻¹ s⁻¹. Besides, the binding result in experiment [2] is “no binding (tested: 300 nM)”. Moreover, the binding result in experiment [3] was “no binding (tested: 300 nM)”.

B10: COVID19_P06_G03 (scFv, V domains shown)
VH: QVQLVQSGAEVKKPGASVKVSCKASGYTFTENEMHWVRQAPGQGLEWMGVVNPSGGYTSYAQKFQGRVTMTRDTSTSTVYMELSSLRSEDTAVYYCTREGIPQLLRSQDYWGQGTLVTVSS
VL: not shown
Turning to B10, the binding result in experiment [2] and in experiment [3] was “no binding (tested: 300 nM)” in each case.

B11: COVID19_R02_A05 (scFv, V domains shown)
VH: QVQLVQSGAEVKKPGASVKVSCKASGYTFTENEMHWVRQAPGQGLEWMGMINPSGGYTNYAQEFQGRVTMTRDTSTSTVYMELSSLRSEDTAVYYCTREGIPQLLRTLDYWGQGTLVTVSS
VL: DIQMTQSPSSLSASVGDRVTITCRASQSIYRWLAWYQQKPGKAPKLLIYAASSLQSGVPSRFSGSGSGTEFTLTISSLQPEDFATYYCQQSYGNPYTFGGGTKVEIKR
For the molecule B11, the binding result in experiment [2] and in experiment [3] was “no binding (tested: 300 nM)” throughout.

B12: COVID19_R02_D03 (scFv, V domains shown)
VH: QVQLVQSGAEVKKPGASVKVSCKASGYTFTEYEMHWVRQAPGQGLEWMGIINPSGGYTNYAQKFQGRVTMTRDTSTSTVYMELSSLRSEDTAVYYCTREGIPQVLRTLDYWGQGTLVTVSS
VL: DIQMTQSPSSLSASVGDRVTITCRASQSISSWLAWYQQKPGKAPKLLIYAASSLQSGVPSRFSGSGSGTDFTLTISSLQPEDFATYYCQQSYSNPYTFGGGTKVEIKR
Consider B12, for which the binding result in experiment [2] and in experiment [3] was “no binding (tested: 300 nM)” throughout.

B13: COVID19_R02_F06 (scFv, V domains shown)
VH: QVQLVQSGAEVKKPGASVKVSCKASGYTFTENEMHWVRQAPGQGLEWMGIINPNGGGTYYAQKFQGRVTMTRDTSTSTVYMELSSLRSEDTAVYYCTREGIPQLLRTLDYWGQGTLVTVSS
VL: DIQMTQSPSSLSASVGDRVTITCRASQGIRNDLGWYQQKPGKAPKLLIYAASSLQSGVPSRFSGSGSGTDFTLTISSLQPEDFATYYCQQTYSAPYTFGGGTKVEIKR
In the case of B13, the binding result in experiment [2] and in experiment [3] was “no binding (tested: 300 nM)” throughout.

B14: COVID19_R02_F07 (scFv, V domains shown)
VH: QVQLVQSGAEVKKPGASVKVSCKASGYTFTENEMHWVRQAPGQGLEWMGIINTSGGYTNYAQKFQGRVTMTRDTSTSTVYMELSSLRSEDTAVYYCTREGIPQLLRTLDYWGQGTLVTVSS
VL: DIQMTQSPSSLSASVGDRVTITCRASQSISSWLAWYQQKPGKAPKLLIYAASSLQSGVPSRFSGSGSGTDFTLTISSLQPEDFATYYCQQSYSNPLHFGGGTKVEIKR
As to B14, the binding result in experiment [2] and in experiment [3] was “no binding (tested: 300 nM)” throughout.

B15: COVID19_R02_B06 (scFv, V domains shown)
VH: QVQLVQSGAEVKKPGASVKVSCKASGYTFTENEMHWVRQAPGQGLEWMGVINPSGGYTSYAQKFQGRVTMTRDTSTSTVYMELSSLRSEDTAVYYCTREGIPQLLRHLDYWGQGTLVTVSS
VL: DIQMTQSPSSLSASVGDRVTITCRASQSISGYLSWYQQKPGKAPKLLIYAASSLQSGVPSRFSGSGSWTDFTLTISSLQPEDFATYYCQQSYSTPLTFGGGTKVEIKR
For the molecule B15, the binding result in experiment [2] and in experiment [3] was “no binding (tested: 300 nM)” in each case.

B16: COVID19_R02_F08 (scFv, V domains shown)
VH: QVQLVQSGAEVKKPGASVKVSCKASGYTFGNYAINWVRQAPGQGLEWMGAIYPGNSDTTYNQKFQGRVTMTRDTSTSTVYMELSSLRSEDTAVYYCARDTVMGGMDVWGQGTLVTVSS
VL: DIQMTQSPSSLSASVGDRVTITCRASQEISGYLSWYQQKPGKAPKLLIYAASSLQSGVPSRFSGSGSGTDFTLTISSLQPEDFATYYCQQYVSYPWTFGGGTKVEIKR
In experiment [1], B16 returned a Kd of 9.1 nM, a koff of 0.00071 s⁻¹ and a kon of 78000 M⁻¹ s⁻¹. Further, in experiment [2], the binding result is recorded as “no binding (tested: 300 nM)”. For the same molecule, in experiment [3], the binding result is given as “no binding (tested: 300 nM)”.

B17: COVID19_P06_G11 (scFv, V domains shown)
VH: QVQLVQSGAEVKKPGASVKVSCKASGNTFTGYYMHWVRQAPGQGLEWMGAIYPGGSDTSYNQKFQGRVTMTRDTSTSTVYMELSSLRSEDTAVYYCTREGIPQLAWTLDYWGQGTLVTVSS
VL: DIQMTQSPSSLSASVGDRVTITCRASQSMSSYLNWYQQKPGKAPKLLIYAASSLQSGVPSRFSGSGSGTEFTLTISSLQPEDIATYYCQQFGSFGGGTKVEIKR
On to B17, for which, in experiment [1], the affinity, expressed as Kd, was 21.5 nM; the koff came to 0.0014 s⁻¹; the kon was 65000 M⁻¹ s⁻¹. The binding result in experiment [2] is reported as “no binding (tested: 300 nM)”. The binding result in experiment [3] is “no binding (tested: 300 nM)”.
